The source of these data is paper doi:10.1101/2025.05.11.653314, “Ureaplasma parvum SMC-ScpAB complex is capable of loop extrusion and demonstrates properties that distinguish it from Bacillus subtilis homologue” (bioRxiv, 2025).

B1: B. subtilis Smc (enzyme, Bacillus subtilis, UniProt P51834 1-1186, looked up)
chain: MFLKRLDVIGFKSFAERISVDFVKGVTAVVGPNGSGKSNITDAIRWVLGEQSARSLRGGKMEDIIFAGSDSRKRLNLAEVTLTLDNDDHFLPIDFHEVSVTRRVYRSGESEFLINNQPCRLKDIIDLFMDSGLGKEAFSIISQGKVEEILSSKAEDRRSIFEEAAGVLKYKTRKKKAENKLFETQDNLNRVEDILHELEGQVEPLKIQASIAKDYLEKKKELEHVEIALTAYDIEELHGKWSTLKEKVQMAKEEELAESSAISAKEAKIEDTRDKIQALDESVDELQQVLLVTSEELEKLEGRKEVLKERKKNAVQNQEQLEEAIVQFQQKETVLKEELSKQEAVFETLQAEVKQLRAQVKEKQQALSLHNENVEEKIEQLKSDYFELLNSQASIRNELQLLDDQMSQSAVTLQRLADNNEKHLQERHDISARKAACETEFARIEQEIHSQVGAYRDMQTKYEQKKRQYEKNESALYQAYQYVQQARSKKDMLETMQGDFSGFYQGVKEVLKAKERLGGIRGAVLELISTEQKYETAIEIALGASAQHVVTDDEQSARKAIQYLKQNSFGRATFLPLSVIRDRQLQSRDAETAARHSSFLGVASELVTFDPAYRSVIQNLLGTVLITEDLKGANELAKLLGHRYRIVTLEGDVVNPGGSMTGGAVKKKNNSLLGRSRELEDVTKRLAEMEEKTALLEQEVKTLKHSIQDMEKKLADLRETGEGLRLKQQDVKGQLYELQVAEKNINTHLELYDQEKSALSESDEERKVRKRKLEEELSAVSEKMKQLEEDIDRLTKQKQTQSSTKESLSNELTELKIAAAKKEQACKGEEDNLARLKKELTETELALKEAKEDLSFLTSEMSSSTSGEEKLEEAAKHKLNDKTKTIELIALRRDQRIKLQHGLDTYERELKEMKRLYKQKTTLLKDEEVKLGRMEVELDNLLQYLREEYSLSFEGAKEKYQLETDPEEARKRVKLIKLAIEELGTVNLGSIDEFERVNERYKFLSEQKEDLTEAKNTLFQVIEEMDEEMTKRFNDTFVQIRSHFDQVFRSLFGGGRAELRLTDPNDLLHSGVEIIAQPPGKKLQNLNLLSGGERALTAIALLFSILKVRPVPFCVLDEVEAALDEANVFRFAQYLKKYSSDTQFIVITHRKGTMEEADVLYGVTMQESGVSKVISVKLEETKEFVQ
notes: Smc (ATPase of the Smc-ScpAB complex), Bacillus subtilis; gene cloned into pET21a; expected mass printed as 135.5 kDa; source: E. coli Rosetta (DE3), purified (HiTrap Q flow-through, Ni-NTA)
B3: B. subtilis ScpA (natural protein, Bacillus subtilis, UniProt P35154 1-251, looked up)
chain: MEEYQVKIDTFEGPLDLLLHLINRLEIDIYDIPVAKITEQYLLYVHTMRVLELDIASEYLVMAATLLSIKSRMLLPKQEEELFEDELLEEEDPREELIEKLIEYRKYKDAAKDLKEREEERQKSFTKPPSDLSEYAKEVKQSEQKLSVTVYDMIGAFQKVLKRKKINRPMETTITRQDIPIEARMNEIVHSLKSRGTRINFMDLFPYEQKEHLVVTFLAVLELMKNQLVLIEQEHNFSDIYITGSESIHGA
notes: ScpA (kleisin of the Smc-ScpAB complex), Bacillus subtilis; gene cloned into pET21a; expected mass printed as 31 kDa; source: E. coli Rosetta (DE3), purified (Ni-NTA, MonoQ)

Common to all, as to assay: cross-linking; purified proteins in various combinations incubated with or without 0.4% formaldehyde in Hepes 50 mM pH 7.5, NaCl 100 mM, DTT 0.1 mM, 20% glycerol; denatured at 65°C with SDS and BME; SDS-PAGE; bands identified by mass spectrometry (peptide fingerprinting)
Data set [1] deals with the molecule itself.
Data set [2] has as its target B3. To be noted: both partners purified.
Data set [3] concerns the target B1. To be noted: both partners purified.

On to B1, for which the “stoichiometry N” value in data set [1] came to 2.

B2: B. subtilis ScpB (natural protein, Bacillus subtilis, UniProt P35155 1-197, looked up)
chain: MGLDIVNWKAIVEALLYAAGDEGLTKKQLLTVLEIEEPELNTIMADVADEYRGDTRGIELIEYADTYMLSTKKDFAPYLKKLIEVPSKGLSQASLEVLAIVSYKQPITRAEIEEIRGVKSERILHSLVAKALLCEVGRADGPGRAILYGTTPTFLEQFGLKTLDELPPLPENAEEDVLQEEADLFFENFNQTFEDIK
notes: ScpB (KITE protein of the Smc-ScpAB complex), Bacillus subtilis; gene cloned into pET21a; expected mass printed as 23.2 kDa; source: E. coli Rosetta (DE3), purified (Ni-NTA, MonoQ)
Consider B2, for which, in data set [1], the “stoichiometry N” value amounted to 2. Besides, in data set [2], the binding result was “binds”.

Regarding B3, the binding result in data set [3] is on record as “binds”.
